Measured values reported in EP1224288B1 (Pharis Biotec GmbH, dated 2006).
One block for each binder: values may come before it.

Tests used:
[1] = molecular target: T1, chemokine receptor 5 (CCR5; AC P51681) (human, UniProt P51681 1-352); assay: cell-based or functional assay
chemokine receptor CCR1 [2] = molecular target: T2, chemokine receptor CCR1 (human, UniProt P32246 1-355); assay: cell-based or functional assay
T2 sequence (looked up): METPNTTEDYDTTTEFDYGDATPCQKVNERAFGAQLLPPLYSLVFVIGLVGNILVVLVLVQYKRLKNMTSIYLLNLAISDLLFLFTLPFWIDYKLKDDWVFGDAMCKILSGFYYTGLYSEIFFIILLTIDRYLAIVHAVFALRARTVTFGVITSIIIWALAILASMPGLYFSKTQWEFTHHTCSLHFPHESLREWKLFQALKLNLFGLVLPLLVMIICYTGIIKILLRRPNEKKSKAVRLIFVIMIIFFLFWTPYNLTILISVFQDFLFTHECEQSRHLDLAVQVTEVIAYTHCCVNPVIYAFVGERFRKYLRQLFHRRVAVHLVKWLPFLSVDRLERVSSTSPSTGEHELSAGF

chemokine receptor CCR3 [3] = molecular target: T3, chemokine receptor CCR3 (human, UniProt P51677 1-355); assay: cell-based or functional assay
T3 sequence (looked up): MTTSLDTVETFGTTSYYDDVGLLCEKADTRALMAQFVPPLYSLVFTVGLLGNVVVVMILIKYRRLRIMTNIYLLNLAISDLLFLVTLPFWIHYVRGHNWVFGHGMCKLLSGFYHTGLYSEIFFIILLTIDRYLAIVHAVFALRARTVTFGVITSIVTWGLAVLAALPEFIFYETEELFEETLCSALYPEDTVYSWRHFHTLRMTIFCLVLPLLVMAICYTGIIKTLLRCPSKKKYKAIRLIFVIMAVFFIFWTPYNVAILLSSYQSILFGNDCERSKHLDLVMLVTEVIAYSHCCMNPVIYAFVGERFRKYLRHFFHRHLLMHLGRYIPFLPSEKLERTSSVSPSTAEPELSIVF

chemokine receptor CCR1 [4] = molecular target: T2, chemokine receptor CCR1; assay: radioligand competition, 0.1 nM 125I-Rantes tracer, membranes of CHO-K1 cells expressing CCR1
chemokine receptor CCR3 [5] = molecular target: T3, chemokine receptor CCR3; assay: radioligand competition, 125I-Eotaxin tracer on CCR3
[6] = molecular target: T1, chemokine receptor 5 (CCR5; AC P51681); assay: radioligand competition, 125I-MIP 1-alpha tracer on CCR5
chemokine receptor CCR1 [7] = molecular target: T2, chemokine receptor CCR1; assay: radioligand competition, 125I-Rantes tracer on CCR1
[8] = molecular target: T1, chemokine receptor 5 (CCR5; AC P51681); assay: radioligand competition, 0.1 nM 125I-MIP 1-alpha tracer, membranes of CHO-K1 cells expressing CCR5
chemokine receptor CCR3 [9] = molecular target: T3, chemokine receptor CCR3; assay: radioligand competition, 0.1 nM 125I-Eotaxin tracer, membranes of CHO-K1 cells expressing CCR3
chemokine receptor CCR1 [10] = molecular target: T2, chemokine receptor CCR1; assay: radioligand competition binding on CCR1

T1 sequence (P51681 whole entry, one chain of several): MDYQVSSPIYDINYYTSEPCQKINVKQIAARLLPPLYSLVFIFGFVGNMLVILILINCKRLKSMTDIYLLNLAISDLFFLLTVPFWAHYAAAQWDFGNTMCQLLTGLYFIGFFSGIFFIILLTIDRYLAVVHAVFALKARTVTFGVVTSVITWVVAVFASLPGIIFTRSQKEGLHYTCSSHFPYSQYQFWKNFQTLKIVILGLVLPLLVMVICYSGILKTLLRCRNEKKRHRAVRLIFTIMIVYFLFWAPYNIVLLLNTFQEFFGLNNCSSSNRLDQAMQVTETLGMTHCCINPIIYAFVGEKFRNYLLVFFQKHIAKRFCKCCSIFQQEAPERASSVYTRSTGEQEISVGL

Aequorin assay, activation of CCR5 transfected CHO-K1 cells, EC50 [1]: 2.4 nM
Aequorin assay, EC50 (chemokine receptor CCR1 [2]): 6.3 nM
B1: RANTES (ligand, UniProt P13501 24-91, looked up)
chain: SPYSSDTTPCCFAYIARPLPRAHIKEYFYTSGKCSNPAVVFVTRKNRQVCANPEKKWVREYINSLEMS
modifications: also: 125I-labelled as tracer, position not given here

Aequorin assay, EC50 (chemokine receptor CCR3 [3]): 78 nM
Aequorin assay, activation of CCR5 transfected CHO-K1 cells, EC50 [1]: 4.8 nM
Aequorin assay, EC50 (chemokine receptor CCR1 [2]): 2.8 nM
IC50 (chemokine receptor CCR1 [4]): 2.3 nM
Ki (chemokine receptor CCR3 [5]): 2.7 nM
Ki [6]: 0.04 nM
Ki (chemokine receptor CCR1 [7]): 0.023 nM
IC50 [8]: 0.04 nM
IC50 (chemokine receptor CCR3 [9]): 78 nM
B2: processed chemokine PHC-1 (HCC-1, residues 9-74) (ligand)
chain: GPYHPSECCFTYTTYKIPRQRIMDYYETNSQCSKPGIVFITKRGHSVCTNPSDKWVQDYIKDMKEN
notes: also called HCC-1[9-74]

Ki (chemokine receptor CCR1 [10]): 100 nM
B3: full size HCC-1 (HCC-1, residues 1-74) (ligand)
chain: TKTESSSRGPYHPSECCFTYTTYKIPRQRIMDYYETNSQCSKPGIVFITKRGHSVCTNPSDKWVQDYIKDMKEN
notes: also called full-length HCC-1; HCC-1, 1-74

Aequorin assay, activation of CCR5 transfected CHO-K1 cells, EC50 [1]: 3.3 nM
B4: MIP 1-alpha (ligand, UniProt P10147 24-92, looked up)
chain: SLAADTPTACCFSYTSRQIPQNFIADYFETSSQCSKPGVIFLTKRSRQVCADPSEEWVQKYVSDLELSA
modifications: also: 125I-labelled as tracer, position not given here
